Among the data in article PMC6265484, “Homodimerization regulates an endothelial specific signature of the SOX18 transcription factor” are binding result and binding signal values, retold here.

Series [1] has as its target T1, SOX18 full length (mouse, UniProt P43680 1-377). The series is described as follows: fluorescence polarization; 2 mM Mg2+; maximum binding (highest mP); FP: 30 mM HEPES pH 7.5, 100 mM KCl, 40 mM NaCl, 10 mM ammonium acetate, 10 mM guanidinium HCl, 2 mM MgCl2, 0.5 mM EDTA, 0.01% NP-40, room temp, 5 nM DNA, 5-150. The following applies: protein: recombinant; tags: N-terminal HIS-GST; chain copies: 2; label: 5'-fluorescein; blunt. In general terms: Polarisation of emitted light reports the rotation of a fluorescent probe.

A further series deals with SOX9-HMG (UniProt Q04887 105-173). The series is described as follows: EMSA; 50 uM Zn2+; two HMG bind; FP: 30 mM HEPES pH 7.5, 100 mM KCl, 40 mM NaCl, 10 mM ammonium acetate, 10 mM guanidinium HCl, 2 mM MgCl2, 0.5 mM EDTA, 0.01% NP-40, room temp, 5 nM DNA, 5-150. The following applies: protein: recombinant; chain copies: 2; label: 5'-Cy5; blunt.
Another series has as its target SOX18-HMG (Sox18_79) (mouse, UniProt P43680 77-155). In words: EMSA; 15 nM protein, 1 nM DNA, 50 uM Zn2+; two HMG bind; FP: 30 mM HEPES pH 7.5, 100 mM KCl, 40 mM NaCl, 10 mM ammonium acetate, 10 mM guanidinium HCl, 2 mM MgCl2, 0.5 mM EDTA, 0.01% NP-40, room temp, 5 nM DNA, 5-150. The following applies: protein: recombinant; tags: pETG20A or pHisMBP vector; chain copies: 2; label: 5'-Cy5; blunt. In general terms: A gel shift assay detects complexes by their altered migration in electrophoresis.

The target of series [2] is T1, SOX18 full length. The series is described as follows: fluorescence polarization; 2 mM Mg2+; FP: 30 mM HEPES pH 7.5, 100 mM KCl, 40 mM NaCl, 10 mM ammonium acetate, 10 mM guanidinium HCl, 2 mM MgCl2, 0.5 mM EDTA, 0.01% NP-40, room temp, 5 nM DNA, 5-150. The settings on record: protein: recombinant; tags: N-terminal HIS-GST; chain copies: 2; label: 5'-fluorescein; blunt.

T1 sequence (P43680 whole entry): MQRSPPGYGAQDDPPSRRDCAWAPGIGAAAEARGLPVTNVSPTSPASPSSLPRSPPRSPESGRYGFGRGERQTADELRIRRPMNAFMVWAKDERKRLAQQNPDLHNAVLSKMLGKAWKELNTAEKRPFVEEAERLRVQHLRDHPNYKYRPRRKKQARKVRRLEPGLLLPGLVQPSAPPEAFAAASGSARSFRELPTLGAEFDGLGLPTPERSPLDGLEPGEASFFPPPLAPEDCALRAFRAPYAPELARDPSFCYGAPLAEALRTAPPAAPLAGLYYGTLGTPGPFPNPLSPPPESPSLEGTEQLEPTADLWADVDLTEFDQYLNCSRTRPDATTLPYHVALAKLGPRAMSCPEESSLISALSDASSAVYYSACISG
SOX9-HMG, sequence (Q04887 105-173): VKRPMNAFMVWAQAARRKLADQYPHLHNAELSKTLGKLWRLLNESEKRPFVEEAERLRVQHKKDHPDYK
SOX18-HMG (Sox18_79), sequence (P43680 77-155): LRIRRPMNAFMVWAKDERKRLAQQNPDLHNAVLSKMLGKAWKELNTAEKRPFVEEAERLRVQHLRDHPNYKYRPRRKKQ

B1: IR5 (FP) (dsDNA)
DNA 1: CGCCAGTAGGAACAATGCGGCATTGTTTTCCGGGGGC
DNA 2: GCCCCCGGAAAACAATGCCGCATTGTTCCTACTGGCG
B1: in the series with SOX18 full length [1], the binding result is “binds”.

B2: IR5 (EMSA) (dsDNA)
DNA 1: CGCCAGTAGGAACAATGCGGCATTGTTTTCCGGGGGC
DNA 2: GCCCCCGGAAAACAATGCCGCATTGTTCCTACTGGCG
In the case of B2, the binding result with SOX9-HMG and with SOX18-HMG (Sox18_79) was “binds” in each case.

B3: IR1 (FP) (dsDNA)
DNA 1: CGCCAGTAGGGCAACAATGATTGTTGCTTCCGGGGGC
DNA 2: GCCCCCGGAAGCAACAATCATTGTTGCCCTACTGGCG
On to B3, for which, in the series with SOX18 full length [2], the binding signal was ~0.5 occupancy relative to IR5.
